Source: US20210388087A1
Where a chain is given by its changes, count along the chain named. Numbers in names are those of the source.

B1: dBBDu183H F100gK / dBBDu072L (antibody, name in Kabat numbering, V domains shown)
VH: QVQLVESGGGLVQPGRSLRLSCAASGFTFSNAWMHWVRQAPGKGLEWVAQIKDKGNAYAAYYAPSVKGRFTISRDDSKNSIYLQMNSLKTEDTAVYYCHYVHYASASTVLPAKGVDAWGQGTTVTVSS
VL: DIVMTQSPLSLPVTPGEPASISCQASQELVHMNRNTYLHWYQQKPGQAPRLLIYKVSNRFPGVPDRFSGSGSGTDFTLKISRVEAEDVGVYYCAQGTSVPFTFGQGTKLEIK
B2: dBBDu183H V100iW / dBBDu072L (antibody, name in Kabat numbering, V domains shown)
VH: B1 VH with K113F, V115W
VL: B1 VL
B3: dBBDu183H V100iF / dBBDu072L (antibody, name in Kabat numbering, V domains shown)
VH: B1 VH with K113F, V115F
VL: B1 VL
B4: dBBDu183H S99F / dBBDu072L (antibody, name in Kabat numbering, V domains shown)
VH: B1 VH with S105F, K113F
VL: B1 VL
B5: dBBDu183H V100iK / dBBDu072L (antibody, name in Kabat numbering, V domains shown)
VH: B1 VH with K113F, V115K
VL: B1 VL
B6: dBBDu183H S100aW / dBBDu072L (antibody, name in Kabat numbering, V domains shown)
VH: B1 VH with S107W, K113F
VL: B1 VL
B7: dBBDu183H D101F / dBBDu072L (antibody, name in Kabat numbering, V domains shown)
VH: B1 VH with K113F, D116F
VL: B1 VL
B8: dBBDu183H G100hK / dBBDu072L (antibody, name in Kabat numbering, V domains shown)
VH: B1 VH with K113F, G114K
VL: B1 VL
B9: dBBDu183H A98W / dBBDu072L (antibody, name in Kabat numbering, V domains shown)
VH: B1 VH with A104W, K113F
VL: B1 VL
B10: dBBDu183H Y97R / dBBDu072L (antibody, name in Kabat numbering, V domains shown)
VH: B1 VH with Y103R, K113F
VL: B1 VL
B11: dBBDu183H V95W / dBBDu072L (antibody, name in Kabat numbering, V domains shown)
VH: B1 VH with V101W, K113F
VL: B1 VL
B12: dBBDu183H H96R / dBBDu072L (antibody, name in Kabat numbering, V domains shown)
VH: B1 VH with H102R, K113F
VL: B1 VL
B13: dBBDu183H D101K / dBBDu072L (antibody, name in Kabat numbering, V domains shown)
VH: B1 VH with K113F, D116K
VL: B1 VL
B14: dBBDu183H S100aF / dBBDu072L (antibody, name in Kabat numbering, V domains shown)
VH: B1 VH with S107F, K113F
VL: B1 VL
B15: dBBDu183H Y94W / dBBDu072L (antibody, name in Kabat numbering, V domains shown)
VH: B1 VH with Y100W, K113F
VL: B1 VL
B16: dBBDu183H G100hW / dBBDu072L (antibody, name in Kabat numbering, V domains shown)
VH: B1 VH with K113F, G114W
VL: B1 VL
B17: dBBDu183H P100eW / dBBDu072L (antibody, name in Kabat numbering, V domains shown)
VH: B1 VH with P111W, K113F
VL: B1 VL
B18: dBBDu183H V100cF / dBBDu072L (antibody, name in Kabat numbering, V domains shown)
VH: B1 VH with V109F, K113F
VL: B1 VL
B19: dBBDu183H A98F / dBBDu072L (antibody, name in Kabat numbering, V domains shown)
VH: B1 VH with A104F, K113F
VL: B1 VL
B20: dBBDu183H T100bF / dBBDu072L (antibody, name in Kabat numbering, V domains shown)
VH: B1 VH with T108F, K113F
VL: B1 VL
B21: dBBDu183H A102F / dBBDu072L (antibody, name in Kabat numbering, V domains shown)
VH: B1 VH with K113F, A117F
VL: B1 VL
B22: dBBDu183H P100eF / dBBDu072L (antibody, name in Kabat numbering, V domains shown)
VH: B1 VH with P111F, K113F
VL: B1 VL
B23: dBBDu183H S99W / dBBDu072L (antibody, name in Kabat numbering, V domains shown)
VH: B1 VH with S105W, K113F
VL: B1 VL
B24: dBBDu183H A98R / dBBDu072L (antibody, name in Kabat numbering, V domains shown)
VH: B1 VH with A104R, K113F
VL: B1 VL
B25: dBBDu183H A100fR / dBBDu072L (antibody, name in Kabat numbering, V domains shown)
VH: B1 VH with A112R, K113F
VL: B1 VL
B26: dBBDu183H Y94R / dBBDu072L (antibody, name in Kabat numbering, V domains shown)
VH: B1 VH with Y100R, K113F
VL: B1 VL
B27: dBBDu183H G100hF / dBBDu072L (antibody, name in Kabat numbering, V domains shown)
VH: B1 VH with K113F, G114F
VL: B1 VL
B28: dBBDu183H A100F / dBBDu072L (antibody, name in Kabat numbering, V domains shown)
VH: B1 VH with A106F, K113F
VL: B1 VL
B29: dBBDu183H S100aR / dBBDu072L (antibody, name in Kabat numbering, V domains shown)
VH: B1 VH with S107R, K113F
VL: B1 VL
B30: dBBDu183H A102R / dBBDu072L (antibody, name in Kabat numbering, V domains shown)
VH: B1 VH with K113F, A117R
VL: B1 VL
B31: dBBDu183H T100bR / dBBDu072L (antibody, name in Kabat numbering, V domains shown)
VH: B1 VH with T108R, K113F
VL: B1 VL
B32: dBBDu183H T100bW / dBBDu072L (antibody, name in Kabat numbering, V domains shown)
VH: B1 VH with T108W, K113F
VL: B1 VL
B33: dBBDu183H A100fW / dBBDu072L (antibody, name in Kabat numbering, V domains shown)
VH: B1 VH with A112W, K113F
VL: B1 VL
B34: dBBDu183H A100W / dBBDu072L (antibody, name in Kabat numbering, V domains shown)
VH: B1 VH with A106W, K113F
VL: B1 VL
B35: dBBDu183H F100gR / dBBDu072L (antibody, name in Kabat numbering, V domains shown)
VH: B1 VH with K113R
VL: B1 VL
B36: dBBDu183H A100fF / dBBDu072L (antibody, name in Kabat numbering, V domains shown)
VH: B1 VH with A112F, K113F
VL: B1 VL
B37: dBBDu183H G100hR / dBBDu072L (antibody, name in Kabat numbering, V domains shown)
VH: B1 VH with K113F, G114R
VL: B1 VL
B38: dBBDu183H H93R / dBBDu072L (antibody, name in Kabat numbering, V domains shown)
VH: B1 VH with H99R, K113F
VL: B1 VL
B39: dBBDu183H H93F / dBBDu072L (antibody, name in Kabat numbering, V domains shown)
VH: B1 VH with H99F, K113F
VL: B1 VL
B40: dBBDu183H A102K / dBBDu072L (antibody, name in Kabat numbering, V domains shown)
VH: B1 VH with K113F, A117K
VL: B1 VL
B41: dBBDu183H V95F / dBBDu072L (antibody, name in Kabat numbering, V domains shown)
VH: B1 VH with V101F, K113F
VL: B1 VL
B42: dBBDu183H L100dR / dBBDu072L (antibody, name in Kabat numbering, V domains shown)
VH: B1 VH with L110R, K113F
VL: B1 VL
B43: dBBDu183H V95R / dBBDu072L (antibody, name in Kabat numbering, V domains shown)
VH: B1 VH with V101R, K113F
VL: B1 VL
B44: dBBDu183H V100iR / dBBDu072L (antibody, name in Kabat numbering, V domains shown)
VH: B1 VH with K113F, V115R
VL: B1 VL
B45: dBBDu183H H93W / dBBDu072L (antibody, name in Kabat numbering, V domains shown)
VH: B1 VH with H99W, K113F
VL: B1 VL
B46: dBBDu183H L100dF / dBBDu072L (antibody, name in Kabat numbering, V domains shown)
VH: B1 VH with L110F, K113F
VL: B1 VL
B47: dBBDu183H D101R / dBBDu072L (antibody, name in Kabat numbering, V domains shown)
VH: B1 VH with K113F, D116R
VL: B1 VL

Target: Human CD137 ECD (human)
Assay: SPR, vs parent H183/L072

Sequence of Human CD137 ECD (human) (chain, as listed by the source limits assumed): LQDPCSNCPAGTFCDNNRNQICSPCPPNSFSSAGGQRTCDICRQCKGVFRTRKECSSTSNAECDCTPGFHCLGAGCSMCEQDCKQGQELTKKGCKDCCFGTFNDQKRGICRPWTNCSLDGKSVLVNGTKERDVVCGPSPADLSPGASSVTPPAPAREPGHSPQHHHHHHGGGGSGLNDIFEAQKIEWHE

Binder	fold change of affinity [fold]
B1	0
B2	0
B3	0
B4	0
B5	0
B6	0
B7	0
B8	0
B9	0
B10	0
B11	0
B12	0
B13	0
B14	0
B15	0
B16	0
B17	0
B18	0
B19	0
B20	0
B21	0
B22	0
B23	0
B24	0

Binder	fold change of affinity [fold]
B25	0
B26	0
B27	0
B28	0
B29	0
B30	0
B31	0
B32	0
B33	0
B34	0
B35	0
B36	0
B37	0
B38	0
B39	0
B40	0
B41	0
B42	0
B43	0
B44	0
B45	0
B46	0
B47	0
